Source: patent US20230233650A1, “NOVEL FATTY ACID MODIFIED UROCORTIN 2 DERIVATIVES AND THE USES THEREOF” (Novo Nordisk A/S, priority 2021, published 2023)
Numbered stars: 1 amine (or outer) side, 2 acyl side, 3 side chain; on linkers, the order of the positions; unused ones are H or OH. Side chains are listed from the residue outwards. Ends that are not written are not given here. * marks the point of attachment. C20 diacid = O=C(O)CCCCCCCCCCCCCCCCCCC(=O)*; γGlu = O=C(O)[C@H](CCC(=O)[*:2])N[*:1]; AEEA = NCCOCCOCC(=O)O

T1: Pro-Link-tagged human CRF1 receptor (human, UniProt P34998 24-415)
T1 sequence (looked up): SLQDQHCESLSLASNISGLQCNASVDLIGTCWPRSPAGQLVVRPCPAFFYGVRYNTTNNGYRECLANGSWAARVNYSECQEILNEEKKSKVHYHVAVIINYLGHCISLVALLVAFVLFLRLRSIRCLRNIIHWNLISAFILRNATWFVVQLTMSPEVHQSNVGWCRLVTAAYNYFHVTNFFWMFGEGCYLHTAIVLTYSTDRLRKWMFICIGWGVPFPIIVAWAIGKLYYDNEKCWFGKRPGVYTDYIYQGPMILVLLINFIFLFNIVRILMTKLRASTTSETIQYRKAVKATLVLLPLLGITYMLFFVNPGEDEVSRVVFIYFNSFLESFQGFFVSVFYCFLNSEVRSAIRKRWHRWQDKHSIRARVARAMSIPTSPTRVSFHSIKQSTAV

T2: Human CRF2 receptor (Corticotropin-Releasing Factor receptor 2) (human) (UniProt Q13324)
T2 sequence (looked up): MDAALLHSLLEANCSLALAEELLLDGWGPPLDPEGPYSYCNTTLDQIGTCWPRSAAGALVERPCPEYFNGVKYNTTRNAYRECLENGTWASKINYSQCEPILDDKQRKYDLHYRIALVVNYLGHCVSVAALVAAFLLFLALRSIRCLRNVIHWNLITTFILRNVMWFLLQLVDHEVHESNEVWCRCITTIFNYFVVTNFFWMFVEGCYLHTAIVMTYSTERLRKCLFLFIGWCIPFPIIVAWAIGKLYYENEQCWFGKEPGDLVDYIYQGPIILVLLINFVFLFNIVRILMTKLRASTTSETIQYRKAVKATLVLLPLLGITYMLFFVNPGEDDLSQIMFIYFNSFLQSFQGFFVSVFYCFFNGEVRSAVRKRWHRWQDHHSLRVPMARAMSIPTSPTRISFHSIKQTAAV

T3: Human CRF1 receptor (Corticotropin-Releasing Factor receptor 1) (human), P34998
T3 chain: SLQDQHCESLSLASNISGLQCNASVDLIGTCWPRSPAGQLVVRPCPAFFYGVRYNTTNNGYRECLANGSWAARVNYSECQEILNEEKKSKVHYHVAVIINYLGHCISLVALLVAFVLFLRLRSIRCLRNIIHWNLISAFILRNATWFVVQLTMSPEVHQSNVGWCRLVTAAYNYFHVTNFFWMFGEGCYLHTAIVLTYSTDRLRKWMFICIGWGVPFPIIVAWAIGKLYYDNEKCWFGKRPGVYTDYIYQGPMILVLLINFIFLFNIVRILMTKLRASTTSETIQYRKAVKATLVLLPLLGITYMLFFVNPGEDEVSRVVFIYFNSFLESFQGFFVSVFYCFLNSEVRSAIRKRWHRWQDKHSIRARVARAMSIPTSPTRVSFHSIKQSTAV

T4: Pro-Link-tagged human CRF2 receptor (human, UniProt Q13324 20-411)
T4 sequence (looked up): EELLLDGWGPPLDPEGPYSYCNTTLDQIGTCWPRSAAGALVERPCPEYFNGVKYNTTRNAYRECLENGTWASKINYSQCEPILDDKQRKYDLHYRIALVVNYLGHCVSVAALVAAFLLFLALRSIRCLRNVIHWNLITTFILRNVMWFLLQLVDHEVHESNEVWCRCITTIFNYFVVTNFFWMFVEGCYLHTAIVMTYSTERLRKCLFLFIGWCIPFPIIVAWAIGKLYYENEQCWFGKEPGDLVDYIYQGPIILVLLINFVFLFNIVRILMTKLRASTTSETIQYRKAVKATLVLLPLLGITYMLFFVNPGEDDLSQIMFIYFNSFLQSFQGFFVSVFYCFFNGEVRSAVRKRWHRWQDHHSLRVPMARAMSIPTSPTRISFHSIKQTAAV

T5: Human CRF1 receptor (Corticotropin-Releasing Factor receptor 1) (human, UniProt P34998 24-415)
T5 construct: whole, on cells; also called type 1 CRF receptor
T5 sequence (looked up): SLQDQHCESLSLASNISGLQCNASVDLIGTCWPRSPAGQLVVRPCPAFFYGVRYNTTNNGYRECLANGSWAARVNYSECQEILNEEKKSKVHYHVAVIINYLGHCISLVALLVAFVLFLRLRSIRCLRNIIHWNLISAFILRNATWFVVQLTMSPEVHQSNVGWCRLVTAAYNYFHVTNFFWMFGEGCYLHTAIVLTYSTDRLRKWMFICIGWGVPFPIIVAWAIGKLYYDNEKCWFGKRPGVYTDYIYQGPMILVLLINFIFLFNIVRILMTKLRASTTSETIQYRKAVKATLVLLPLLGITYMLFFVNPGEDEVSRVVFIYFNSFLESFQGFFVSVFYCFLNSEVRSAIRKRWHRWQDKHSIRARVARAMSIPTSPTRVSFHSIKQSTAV


What was measured:
[1] = target: T1, Pro-Link-tagged human CRF1 receptor; test: cell-based or functional assay
[2] = target: T2, Human CRF2 receptor (Corticotropin-Releasing Factor receptor 2) (human); test: SPA, displacement of [125I]-Sauvagine from membranes of CHO-K1 cells expressing the CRF2 receptor
[3] = target: T3, Human CRF1 receptor …; test: SPA, displacement of [125I]-Sauvagine from membranes of CHO-K1 cells expressing the CRF1 receptor; conditions: remark: other sources report otherwise
[4] = target: T4, Pro-Link-tagged human CRF2 receptor; test: cell-based or functional assay
[5] = target: T5, Human CRF1 receptor …; test: SPA, displacement of [125I]-Sauvagine from membranes of CHO-K1 cells expressing the CRF1 receptor
Method: Scintillation Proximity Assay: CHO-K1 cells expressing either the CRF₁ receptor or the CRF₂ receptor were obtained from DiscoveRx. Both cell lines were cultured at 37° C. in a humidified atmosphere with 5% CO₂. The culture media used was Ham’s F-12 Nutrient Mix with Glutamax (Gibco) containing 10% fetal bovine serum, 1% Pen/Strep, 800 µg/ml G418 and 300 µg/ml Hygromycin B. Membranes were prepared by the following protocol: cultured cells were washed twice with cold Dulbecco’s phosphate buffered saline and detached using TrypLE™ (ThermoFisher) and transferred to tubes and centrifuged for 5 minutes at 1000 g at +4° C. Pellets were resuspended in ice cold homogenization buffer (20 mM Hepes pH 7.1, 5 mM MgCl₂, 1 mg/ml Bacitracin with 2 complete EDTA-free protease inhibitor cocktail tablets/50 ml (Roche)) and then homogenized for 30 seconds using a Ultra-Turrax T25 tissue homogenizer (IKA) at medium speed. The homogenate was centrifuged at 35,000 g for 15 minutes at +4° C. using an ultracentrifuge, and the supernatant was discarded, and fresh homogenization buffer was added. Homogenization of the pellet was repeated a total of three times. The final pellet was resuspended in a few millilitres of homogenization buffer and protein concentration was determined using the Bradford method. The membrane preparation was transferred to cryotubes, and the aliquots were stored at -80° C. […]

| Binder | Human CRF1 receptor EC50 [nM] (beta-arrestin recruitment, PathHunter) [1] | IC50 [2] | IC50 [3] | Human CRF2 receptor EC50 [nM] (beta-arrestin recruitment, PathHunter) [4] | IC50 [5] |
| --- | --- | --- | --- | --- | --- |
| IVLSLDVPIGLLQILLEQARARAAREQATTNARILARV-NH2 [Compound 2 - hUcn2 (human Urocortin 2 peptide)] | > 10000 nM | 0.58 nM | 447 nM |  |  |
| K([AEEA-AEEA-γGlu-γGlu-γGlu-C20 diacid])IVLSLDVPIGLLQILLEQARARAAREQATTNAEILAEV-NH2 (N-terminus assumed; SMILES CC[C@H](C)[C@H](NC(=O)[C@H](CCC(=O)O)NC(=O)[C@H](C)NC(=O)[C@H](CC(N)=O)NC(=O)[C@@H](NC(=O)[C@@H](NC(=O)[C@H](C)NC(=O)[C@H](CCC(N)=O)NC(=O)[C@H](CCC(=O)O)NC(=O)[C@H](CCCNC(=N)N)NC(=O)[C@H](C)NC(=O)[C@H](C)NC(=O)[C@H](CCCNC(=N)N)NC(=O)[C@H](C)NC(=O)[C@H](CCCNC(=N)N)NC(=O)[C@H](C)NC(=O)[C@H](CCC(N)=O)NC(=O)[C@H](CCC(=O)O)NC(=O)[C@H](CC(C)C)NC(=O)[C@H](CC(C)C)NC(=O)[C@@H](NC(=O)[C@H](CCC(N)=O)NC(=O)[C@H](CC(C)C)NC(=O)[C@H](CC(C)C)NC(=O)CNC(=O)[C@@H](NC(=O)[C@@H]1CCCN1C(=O)[C@@H](NC(=O)[C@H](CC(=O)O)NC(=O)[C@H](CC(C)C)NC(=O)[C@H](CO)NC(=O)[C@H](CC(C)C)NC(=O)[C@@H](NC(=O)[C@@H](NC(=O)[C@@H](N)CCCCNC(=O)COCCOCCNC(=O)COCCOCCNC(=O)CC[C@H](NC(=O)CC[C@H](NC(=O)CC[C@H](NC(=O)CCCCCCCCCCCCCCCCCCC(=O)O)C(=O)O)C(=O)O)C(=O)O)[C@@H](C)CC)C(C)C)C(C)C)[C@@H](C)CC)[C@@H](C)CC)[C@@H](C)O)[C@@H](C)O)C(=O)N[C@@H](CC(C)C)C(=O)N[C@@H](C)C(=O)N[C@@H](CCC(=O)O)C(=O)N[C@H](C(N)=O)C(C)C) [Compound 3: N{epsilon}-[C20 diacid-3xgGlu-2xAdo]Lys-[Glu33,Glu37]-hUcn2] | > 10000 nM |  |  | 55 nM |  |
| K([AEEA-AEEA-γGlu-γGlu-γGlu-C20 diacid])IVLSLDVPIGLLQILLEQARARAAREQATTNAEILERV-NH2 (N-terminus assumed; SMILES CC[C@H](C)[C@H](NC(=O)[C@H](CCC(=O)O)NC(=O)[C@H](C)NC(=O)[C@H](CC(N)=O)NC(=O)[C@@H](NC(=O)[C@@H](NC(=O)[C@H](C)NC(=O)[C@H](CCC(N)=O)NC(=O)[C@H](CCC(=O)O)NC(=O)[C@H](CCCNC(=N)N)NC(=O)[C@H](C)NC(=O)[C@H](C)NC(=O)[C@H](CCCNC(=N)N)NC(=O)[C@H](C)NC(=O)[C@H](CCCNC(=N)N)NC(=O)[C@H](C)NC(=O)[C@H](CCC(N)=O)NC(=O)[C@H](CCC(=O)O)NC(=O)[C@H](CC(C)C)NC(=O)[C@H](CC(C)C)NC(=O)[C@@H](NC(=O)[C@H](CCC(N)=O)NC(=O)[C@H](CC(C)C)NC(=O)[C@H](CC(C)C)NC(=O)CNC(=O)[C@@H](NC(=O)[C@@H]1CCCN1C(=O)[C@@H](NC(=O)[C@H](CC(=O)O)NC(=O)[C@H](CC(C)C)NC(=O)[C@H](CO)NC(=O)[C@H](CC(C)C)NC(=O)[C@@H](NC(=O)[C@@H](NC(=O)[C@@H](N)CCCCNC(=O)COCCOCCNC(=O)COCCOCCNC(=O)CC[C@H](NC(=O)CC[C@H](NC(=O)CC[C@H](NC(=O)CCCCCCCCCCCCCCCCCCC(=O)O)C(=O)O)C(=O)O)C(=O)O)[C@@H](C)CC)C(C)C)C(C)C)[C@@H](C)CC)[C@@H](C)CC)[C@@H](C)O)[C@@H](C)O)C(=O)N[C@@H](CC(C)C)C(=O)N[C@@H](CCC(=O)O)C(=O)N[C@@H](CCCNC(=N)N)C(=O)N[C@H](C(N)=O)C(C)C) [Compound 4: N{epsilon}-[C20 diacid-3xgGlu-2xAdo]Lys-[Glu33,Glu36]-hUcn2] | > 10000 nM |  |  | 42 nM |  |
| DNPSLSIDLTFHLLRTLLELARTQSQRERAEQNRIIFDSV-NH2 (also called human Ucn1) [Compound 1 - hUcn1 (human Urocortin 1 peptide)] | 22 nM |  |  | 31 nM | 0.07 nM |
